Here are results for 3 molecules from publication PMC8878330 (Molecules, 2022).

As a reminder, the Km is the concentration of substrate that gives half-maximal velocity. The IC50 is the concentration needed to halve the response being measured. Broadly, the Vmax is the rate approached at saturating substrate. The term kcat denotes the number of substrate molecules converted per active site and unit of time at saturation. What is called kcat/Km is the second-order rate constant that governs catalysis at low substrate concentration.

Data set [1] has as its target T1, New Delhi metallo-β-lactamase-1 (NDM-1) (Klebsiella pneumoniae, UniProt C7C422).
T1 construct: gene blaNDM-1
Kind of data set: steady-state hydrolysis kinetics with purified NDM-1 (Km). In kind it is biochemical.

The target of data set [2] is T1, New Delhi metallo-β-lactamase-1 (NDM-1). Kind of data set: biochemical.
Data set [3] relates to CO/N=C(\C(=O)N[C@@H]1C(=O)N2C(C(=O)O)=C(COC(C)=O)CS[C@H]12)c1csc(N)n1. Kind of data set: steady-state hydrolysis kinetics with purified NDM-1 (Km). In kind it is biochemical, Klebsiella pneumoniae. To be noted: Zn2+ (two Zn ions).
Data set [4] concerns CC1(C)S[C@@H]2[C@H](NC(=O)[C@H](N)c3ccccc3)C(=O)N2[C@H]1C(=O)O. The data set is described as above. Type of data set: biochemical, Klebsiella pneumoniae. Particulars: Zn2+ (two Zn ions).
Data set [5] relates to C[C@@H](O)[C@H]1C(=O)N2C(C(=O)O)=C(S[C@@H]3CN[C@H](C(=O)N(C)C)C3)[C@H](C)[C@H]12. Described as above. To be noted: Zn2+ (two Zn ions). Type of data set: biochemical, Klebsiella pneumoniae.
For data set [6], the system named is C[C@@H](O)[C@H]1C(=O)N2C(C(=O)O)=C(SCCN=CN)C[C@H]12. The data set is described as above. In kind it is biochemical, Klebsiella pneumoniae. Particulars: Zn2+ (two Zn ions).

T1 sequence (C7C422 29-270 limits assumed): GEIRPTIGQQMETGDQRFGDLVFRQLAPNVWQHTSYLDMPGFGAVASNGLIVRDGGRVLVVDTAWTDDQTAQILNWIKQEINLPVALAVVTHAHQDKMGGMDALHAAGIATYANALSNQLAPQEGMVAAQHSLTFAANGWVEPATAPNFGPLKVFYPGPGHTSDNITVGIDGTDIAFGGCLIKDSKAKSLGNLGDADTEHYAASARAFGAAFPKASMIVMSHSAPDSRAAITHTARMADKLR

Turning to `O=C(Cc1cccs1)N[C@@H]1C(=O)N2C(C(=O)O)=C(/C=C/c3ccc([N+](=O)[O-])cc3[N+](=O)[O-])CS[C@H]12` [nitrocefin], the Km in data set [1] is 23.2 ± 1.7 µM.
For `O=P(O)(O)C(O)(Cc1cccnc1)P(=O)(O)O` [risedronate], the IC50 in data set [2] was found to be 24.6 µM.
For “New Delhi metallo-β-lactamase-1 (NDM-1) (Klebsiella pneumoniae)”, in data set [3], the Km amounted to 54.8 ± 3.7 µM, the Vmax was 45.1 µM/min, the turnover number (kcat) turned out to be 375 ± 17.5 s⁻¹ and the kcat/Km came to 6.85e+06 ± 560000 M⁻¹ s⁻¹. In addition, in data set [4], the Km was found to be 96.5 ± 3.1 µM, the Vmax was 44.9 µM/min, the kcat is 375 ± 14.3 s⁻¹ and the kcat/Km worked out at 3.88e+06 ± 190000 M⁻¹ s⁻¹. In addition, in data set [5], the Km came to 52.8 ± 3.4 µM, the maximum rate (Vmax) is 38.6 µM/min, the catalytic constant (kcat) came out at 322 ± 11.7 s⁻¹ and the kcat/Km came to 6.1e+06 ± 450000 M⁻¹ s⁻¹. For the same molecule, in data set [6], the Km came out at 75.9 ± 2.9 µM, the Vmax turned out to be 91 µM/min, the catalytic constant (kcat) stood at 758 ± 18.6 s⁻¹ and the kcat/Km stood at 9.99e+06 ± 450000 M⁻¹ s⁻¹.
